In the supplement of paper PMC10126150:
± gives the standard deviation of the averaged measurements.

Test system: ATP
Assay: switch fluorescence ratio, 500 uM ATP over buffer (Cy3 cluster intensity, sum of 5 cycles each) (fold (ratio)); higher = stronger signal-on switching upon ATP binding; sequences stand for … in TCGTCGGCAGCGTCAGATGTGTATAAGAGACAGTTTTTTTTTTTTTTTTTTTTTTTTT…TC
Conditions: aptamer strand: ATP DNA aptamer (quencher-CACCTGGGGGAGTATTGCGGAGGAAGG + anchor), 100 nM annealed; ATP concentration: 500 uM
Method in brief: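 Five buffer/ATP imaging cycles were run on Cy3-labelled switching-strand clusters on a modified Illumina MiSeq flow-cell, with NaOH stripping and re-annealing between cycles. In each cycle, clusters annealed to 100 nM quencher-labelled ATP aptamer were imaged in selection buffer, then after 15 min with 500 uM ATP at 22 °C. Per cluster, the fluorescence ratio is summed target-cycle over summed buffer-cycle Cy3 intensity, averaged per switch-domain sequence. Only clusters within 100-1000 RFU were kept.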
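Note: ATP exposure 15 min at 22 °C before imaging.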

TTCGTGGGCT and TTCGTGGGGG are within error of each other in switch fluorescence ratio: 1.02 ± 0.045 for the first, 0.991 ± 0.015 for the second.

Compared with TTCGTGGGGT, TTCGTGTGCC is lower in switch fluorescence ratio: 1.03 ± 0.061 for the first, 0.94 ± 0.011 for the second.

TTCGTTATTA and TTCGTTGGCT are within error of each other in switch fluorescence ratio: 1.34 ± 0.42 for the first, 1.16 ± 0.23 for the second.

TTCGTTTGAA and TTCTAAAATT are within error of each other in switch fluorescence ratio: 1 ± 0.027 for the first, 0.992 ± 0.032 for the second.

TTCTAAAGTA and TTCTAAGGGG are within error of each other in switch fluorescence ratio: 0.994 ± 0.014 for the first, 1.93 ± 1.3 for the second.

Going from TTCTAATGAG to TTCTACCTGA, the switch fluorescence ratio rises from 0.998 ± 0.019 to 1.064 ± 0.0086.

TTCTACTGAT and TTCTAGGCGC are within error of each other in switch fluorescence ratio: 1.32 ± 0.39 for the first, 0.9972 ± 0.0073 for the second.

First: TTCTAGGCGG
Second: TTCTAGGGAA
The switch fluorescence ratio of the first is higher: 1.03 ± 0.029 for the first, 0.977 ± 0.023 for the second.

TTCTAGGTAG and TTCTAGTTGA are the same in switch fluorescence ratio: 0.991 ± 0.05 for the first, 0.991 ± 0.022 for the second.

TTCTATTGTT and TTCTCACGTC are within error of each other in switch fluorescence ratio: 0.999 ± 0.017 for the first, 1.01 ± 0.082 for the second.

TTCTCACTTG and TTCTCGCTGG are within error of each other in switch fluorescence ratio: 1.02 ± 0.03 for the first, 1 ± 0.041 for the second.

TTCTGAACGT and TTCTGATCAG are within error of each other in switch fluorescence ratio: 1 ± 0.015 for the first, 1.01 ± 0.011 for the second.

TTCTGATGGT and TTCTGATTGC are within error of each other in switch fluorescence ratio: 0.99 ± 0.021 for the first, 0.984 ± 0.064 for the second.

TTCTGCAGGT and TTCTGCCCC are within error of each other in switch fluorescence ratio: 0.995 ± 0.011 for the first, 1.01 ± 0.033 for the second.

TTCTGGAACT and TTCTGGCACA are within error of each other in switch fluorescence ratio: 1.03 ± 0.015 for the first, 1.02 ± 0.029 for the second.

TTCTGGCGCG and TTCTGGGGAG are within error of each other in switch fluorescence ratio: 0.984 ± 0.015 for the first, 1.03 ± 0.051 for the second.

TTCTGGGGGA and TTCTGGGGTA are within error of each other in switch fluorescence ratio: 0.992 ± 0.039 for the first, 0.988 ± 0.033 for the second.

TTCTGGTGTG and TTCTGTATGC are within error of each other in switch fluorescence ratio: 0.9703 ± 0.0072 for the first, 1.02 ± 0.045 for the second.

TTCTGTATGT and TTCTGTGGTG are within error of each other in switch fluorescence ratio: 0.97 ± 0.029 for the first, 1.01 ± 0.028 for the second.

TTCTGTTTGG and TTCTTAGAGT are within error of each other in switch fluorescence ratio: 1.01 ± 0.017 for the first, 1.02 ± 0.016 for the second.

TTCTTCATAG and TTCTTCTGGC are the same in switch fluorescence ratio: 1.02 ± 0.015 for the first, 1.017 ± 0.0073 for the second.

TTCTTCTGGG and TTCTTGAAG are within error of each other in switch fluorescence ratio: 0.997 ± 0.017 for the first, 0.966 ± 0.02 for the second.

TTCTTGAGGT and TTCTTGGGGT are within error of each other in switch fluorescence ratio: 0.9669 ± 0.0016 for the first, 0.975 ± 0.056 for the second.

TTCTTGTAAT and TTCTTTGTTG are within error of each other in switch fluorescence ratio: 1.014 ± 0.003 for the first, 0.984 ± 0.046 for the second.

Compared with TTCTTTTAAT, TTCTTTTATG is higher in switch fluorescence ratio: 0.98998 ± 0.0005 for the first, 1.02 ± 0.021 for the second.

TTGAAAAAGC and TTGAAACATT are within error of each other in switch fluorescence ratio: 0.975 ± 0.015 for the first, 1.01 ± 0.024 for the second.

TTGAAAGGGC and TTGAAAGGGT are within error of each other in switch fluorescence ratio: 1.02 ± 0.019 for the first, 0.981 ± 0.087 for the second.

TTGAAATGTT and TTGAACGAGC are within error of each other in switch fluorescence ratio: 0.9923 ± 0.0033 for the first, 0.99 ± 0.04 for the second.

TTGAACGGTG and TTGAAGAAAG are within error of each other in switch fluorescence ratio: 1.03 ± 0.047 for the first, 0.976 ± 0.021 for the second.

TTGAAGAGGT and TTGAAGATAA are within error of each other in switch fluorescence ratio: 0.976 ± 0.049 for the first, 1.02 ± 0.033 for the second.

TTGAAGCGGA and TTGAAGCGGC are within error of each other in switch fluorescence ratio: 1.03 ± 0.03 for the first, 1.59 ± 0.76 for the second.

TTGAAGCTGG and TTGAAGGGGA are within error of each other in switch fluorescence ratio: 0.9746 ± 0.0088 for the first, 0.9736 ± 0.0039 for the second.

TTGAAGGGGC and TTGAAGTGCG are within error of each other in switch fluorescence ratio: 0.997 ± 0.055 for the first, 1.02 ± 0.049 for the second.

Compared with TTGAAGTGTG, TTGAAGTTAC is higher in switch fluorescence ratio: 1.02 ± 0.015 for the first, 1.111 ± 0.0072 for the second.

TTGAAGTTAG and TTGAATCGGG are within error of each other in switch fluorescence ratio: 0.99 ± 0.02 for the first, 0.944 ± 0.035 for the second.

Going from TTGAATGAGG to TTGACAGGGT, the switch fluorescence ratio rises from 0.95006 ± 0.00095 to 1.03 ± 0.07.

TTGACCAAAA and TTGACCGATT are within error of each other in switch fluorescence ratio: 1.03 ± 0.055 for the first, 0.978 ± 0.041 for the second.

First: TTGACGAAGG
Second: TTGACGACAC
The switch fluorescence ratio of the first is lower: 0.95 ± 0.026 for the first, 1.67 ± 0.45 for the second.

TTGACGAGTT and TTGACGATGT are within error of each other in switch fluorescence ratio: 1.06 ± 0.081 for the first, 1.17 ± 0.19 for the second.

First: TTGACGCAGG
Second: TTGACGCTAA
The switch fluorescence ratio of the first is lower: 1.06 ± 0.012 for the first, 2.37 ± 0.65 for the second.

TTGACGGAGG and TTGACGGGCT are within error of each other in switch fluorescence ratio: 0.983 ± 0.032 for the first, 1.05 ± 0.043 for the second.

TTGACGGTGG and TTGACGGTGT are within error of each other in switch fluorescence ratio: 1.05 ± 0.086 for the first, 1.028 ± 0.0021 for the second.

TTGACGTGTC and TTGACTGTTC are within error of each other in switch fluorescence ratio: 1 ± 0.043 for the first, 1.04 ± 0.043 for the second.

Compared with TTGACTTACT, TTGACTTATA is lower in switch fluorescence ratio: 1.18 ± 0.085 for the first, 1.01 ± 0.022 for the second.

TTGAGAAAAG and TTGAGACGGT are within error of each other in switch fluorescence ratio: 1.06 ± 0.099 for the first, 1 ± 0.017 for the second.

Going from TTGAGAGTTG to TTGAGCAAGT, the switch fluorescence ratio rises from 0.984 ± 0.046 to 1.14 ± 0.075.

TTGAGCATGG and TTGAGCTGTG are within error of each other in switch fluorescence ratio: 1.06 ± 0.051 for the first, 1.02 ± 0.019 for the second.

Going from TTGAGGAAGT to TTGAGGAATA, the switch fluorescence ratio falls from 1.06 ± 0.058 to 0.9922 ± 0.008.

TTGAGGCGAT and TTGAGGGAGC are within error of each other in switch fluorescence ratio: 1.23 ± 0.22 for the first, 1.09 ± 0.038 for the second.

TTGAGGGGA and TTGAGGGGAA are within error of each other in switch fluorescence ratio: 0.982 ± 0.021 for the first, 0.999 ± 0.025 for the second.
